Experiments:
[1] = system: hMyoD promoter; test: NHR-promoter luciferase screen, hMyoD promoter; format: cell-based, human; details: for Luc. act., normalized to lacZ / Normalized Luc. act., normalized to control: MyoD promoter reporter, co-transfected HR, without or with its ligand; for Normalized Luc. act., normalized to control: relative to control; for luciferase activity normalized to lacZ activity and to a control, hMyoD: hMyoD promoter-luciferase, CV-1 cells, NHR +/- ligand, control = 1.00
Method: (§1) The use, feasibility, and reproducibility of the functional NHR-promoter screen in a 48-well format have been tested validated. Briefly, there were co-expressed 50 ng of each NHR/NHR homodimer or NHR/RXR heterodimer with 100 ng promoter/luciferase construct and 50 ng of LacZ (as a control for transfection efficiency) in CV-1 cells using Fugene HD (Roche) as a transfection reagent (alternatively or additionally, a CMV-YFP construct can be used as a transfection control). Each of the nuclear hormone receptors that were used in these experiments was cloned into a pcDNA3.1 vector and comprised a C-terminally linked V5H6 tag. Twenty-four hours after transfection, appropriate ligands were added, where applicable, (see Table 5 for various ligands and concentrations and after 48 hrs, samples were assayed for luciferase and LacZ activity. To measure for luciferase activity 15 ul of sample was added to 30 ul of luciferase buffer (20 mM tricine, 1.07 mM MgCarbonate, 2.67 mM MgSulfate, 0.1 mM Naz-EDTA, 5 mM DTT, 5 mM ATP, 0.15 mg/ml CoA, 0.5 mM Luciferin), mixed briefly, and run in a Perkin Elmer Victor 5 luminometer. Thus, the functional NHR-promoter screen was used to observe the transcriptional activity of 29 promoters from various physiological pathways including inflammation, lipid and sugar metabolism, cholesterol transport, xenobiotic metabolism, and circadian rhythm.
(§2) The promoters that facilitate transcription of the indicated gene products that were tested using the protocols described herein are listed in the first row of the table. The nuclear hormone receptors and, where applicable, ligands that were assayed for their transcriptional effects on the promoters are listed in the first column of the table. The data represent the luciferase activity of each sample normalized to both the lacZ activity of that sample and to a control, e.g., no NHR or ligand, as customary in the art. As described previously, these normalizations allow the transcriptional activity of each reporter cell to be compared to other samples.
(§3) Tables 7-40 show the transcriptional effects of the hormone receptors, and, where applicable, ligands (orphan receptors are screened without ligand), on each individual promoter. […] The control data of each table are shown in their last rows.

[2] = system: mPer1 promoter; test: NHR-promoter luciferase screen, mPer1 promoter; format: cell-based, mouse; details: for Luc. act., normalized to lacZ / Normalized Luc. act., normalized to control: Per1 promoter reporter, co-transfected HR, with or without its ligand; for Normalized Luc. act., normalized to control: relative to control; for luciferase activity normalized to lacZ activity and to a control, mPer1: mPer1 promoter-luciferase, CV-1 cells, NHR +/- ligand, control = 1.00
Method: as §1, §2, §3

[3] = system: mAgrp promoter; test: NHR-promoter luciferase screen, mAgrp promoter; format: cell-based, mouse; details: for Results of assays of transcription factor (+/- ligand) with mAgrp: Table 6d, luciferase activity relative to control (control = 1.00); for Luc. act., normalized to lacZ / Normalized Luc. act., normalized to control: mAgrp promoter, HR component with or without ligand; for Normalized Luc. act., normalized to control: relative to control
Method: as §1, §2, §3

[4] = system: mAdiponectin promoter; test: NHR-promoter luciferase screen, mAdiponectin promoter; format: cell-based, mouse; details: for Luc. act., normalized to lacZ / Normalized Luc. act., normalized to control: Adiponectin, HR component without or with its ligand; for mAdiponectin promoter reporter activity: transcription factor +/- ligand, control = 1.00
Method: as §1, §2, §3

[5] = system: mDio1 promoter; test: NHR-promoter luciferase screen, mDio1 promoter; format: cell-based, mouse; details: for Luc. act., normalized to lacZ / Normalized Luc. act., normalized to control: Dio1, HR component without or with its ligand; for mDio1 promoter reporter activity: transcription factor +/- ligand, control = 1.00
Method: as §1, §2, §3

[6] = system: Bmal1 promoter; test: NHR-promoter luciferase screen, Bmal1 promoter; format: cell-based, mouse; details: for Luc. act., normalized to lacZ / Normalized Luc. act., normalized to control: Bmal1 promoter, HR component without or with ligand; for regulation of the Bmal1 promoter: FIG. 2c, in words; for mBmal1 promoter reporter activity: transcription factor +/- ligand, control = 1.00
Method: as §1, §2, §3

B1: RVRa: Rev-Erb α (NR1D1), cDNA driver (protein, UniProt P20393 1-614, looked up)
Nuclear receptor subfamily 1 …: MTTLDSNNNTGGVITYIGSSGSSPSRTSPESLYSDNSNGSFQSLTQGCPTYFPPSPTGSLTQDPARSFGSIPPSLSDDGSPSSSSSSSSSSSSFYNGSPPGSLQVAMEDSSRVSPSKSTSNITKLNGMVLLCKVCGDVASGFHYGVHACEGCKGFFRRSIQQNIQYKRCLKNENCSIVRINRNRCQQCRFKKCLSVGMSRDAVRFGRIPKREKQRMLAEMQSAMNLANNQLSSQCPLETSPTQHPTPGPMGPSPPPAPVPSPLVGFSQFPQQLTPPRSPSPEPTVEDVISQVARAHREIFTYAHDKLGSSPGNFNANHASGSPPATTPHRWENQGCPPAPNDNNTLAAQRHNEALNGLRQAPSSYPPTWPPGPAHHSCHQSNSNGHRLCPTHVYAAPEGKAPANSPRQGNSKNVLLACPMNMYPHGRSGRTVQEIWEDFSMSFTPAVREVVEFAKHIPGFRDLSQHDQVTLLKAGTFEVLMVRFASLFNVKDQTVMFLSRTTYSLQELGAMGMGDLLSAMFDFSEKLNSLALTEEELGLFTAVVLVSADRSGMENSASVEQLQETLLRALRALVLKNRPLETSRFTKLLLKLPDLRTLNNMHSEKLLSFRVDAQ
[1]
  Luc. act., normalized to lacZ: 75.0
  Normalized Luc. act., normalized to control: 1.2
  luciferase activity normalized to lacZ activity and to a control, hMyoD: 1.18
[2]
  Luc. act., normalized to lacZ: 98.6
  Normalized Luc. act., normalized to control: 0.7
  luciferase activity normalized to lacZ activity and to a control, mPer1: 0.68
[3]
  Results of assays of transcription factor (+/- ligand) with mAgrp: 1.21
  Luc. act., normalized to lacZ: 47.9
  Normalized Luc. act., normalized to control: 1.2
[4]
  Luc. act., normalized to lacZ: 55.2
  Normalized Luc. act., normalized to control: 0.9
  mAdiponectin promoter reporter activity: 0.88
[5]
  Luc. act., normalized to lacZ: 5.7
  Normalized Luc. act., normalized to control: 1.3
  mDio1 promoter reporter activity: 1.27
[6]
  Luc. act., normalized to lacZ: 2.5
  Normalized Luc. act., normalized to control: 0.2
  regulation of the Bmal1 promoter: specific repression
  mBmal1 promoter reporter activity: 0.16

B2: RORa: RAR-related Orphan Receptor α (NR1F1), cDNA driver (protein, UniProt P35398 1-523, looked up)
Nuclear receptor ROR-alpha: MESAPAAPDPAASEPGSSGADAAAGSRETPLNQESARKSEPPAPVRRQSYSSTSRGISVTKKTHTSQIEIIPCKICGDKSSGIHYGVITCEGCKGFFRRSQQSNATYSCPRQKNCLIDRTSRNRCQHCRLQKCLAVGMSRDAVKFGRMSKKQRDSLYAEVQKHRMQQQQRDHQQQPGEAEPLTPTYNISANGLTELHDDLSNYIDGHTPEGSKADSAVSSFYLDIQPSPDQSGLDINGIKPEPICDYTPASGFFPYCSFTNGETSPTVSMAELEHLAQNISKSHLETCQYLREELQQITWQTFLQEEIENYQNKQREVMWQLCAIKITEAIQYVVEFAKRIDGFMELCQNDQIVLLKAGSLEVVFIRMCRAFDSQNNTVYFDGKYASPDVFKSLGCEDFISFVFEFGKSLCSMHLTEDEIALFSAFVLMSADRSWLQEKVKIEKLQQKIQLALQHVLQKNHREDGILTKLICKVSTLRALCGRHTEKLMAFKAIYPDIVRLHFPPLYKELFTSEFEPAMQIDG
[1]
  Luc. act., normalized to lacZ: 47.3
  Normalized Luc. act., normalized to control: 0.7
  luciferase activity normalized to lacZ activity and to a control, hMyoD: 0.75
[2]
  Luc. act., normalized to lacZ: 107.9
  Normalized Luc. act., normalized to control: 0.7
  luciferase activity normalized to lacZ activity and to a control, mPer1: 0.75
[3]
  Results of assays of transcription factor (+/- ligand) with mAgrp: 1.65
  Luc. act., normalized to lacZ: 65.6
  Normalized Luc. act., normalized to control: 1.7
[4]
  Luc. act., normalized to lacZ: 80.0
  Normalized Luc. act., normalized to control: 1.3
  mAdiponectin promoter reporter activity: 1.27
[5]
  Luc. act., normalized to lacZ: 2.1
  Normalized Luc. act., normalized to control: 0.5
  mDio1 promoter reporter activity: 0.47
[6]
  Luc. act., normalized to lacZ: 115.6
  Normalized Luc. act., normalized to control: 7.4
  regulation of the Bmal1 promoter: specific activation
  mBmal1 promoter reporter activity: 7.40

B3: RVRb: Rev-Erb β (NR1D2, alternative name RVR), cDNA driver (protein, UniProt Q14995 1-579, looked up)
Nuclear receptor subfamily 1 …: MEVNAGGVIAYISSSSSASSPASCHSEGSENSFQSSSSSVPSSPNSSNSDTNGNPKNGDLANIEGILKNDRIDCSMKTSKSSAPGMTKSHSGVTKFSGMVLLCKVCGDVASGFHYGVHACEGCKGFFRRSIQQNIQYKKCLKNENCSIMRMNRNRCQQCRFKKCLSVGMSRDAVRFGRIPKREKQRMLIEMQSAMKTMMNSQFSGHLQNDTLVEHHEQTALPAQEQLRPKPQLEQENIKSSSPPSSDFAKEEVIGMVTRAHKDTFMYNQEQQENSAESMQPQRGERIPKNMEQYNLNHDHCGNGLSSHFPCSESQQHLNGQFKGRNIMHYPNGHAICIANGHCMNFSNAYTQRVCDRVPIDGFSQNENKNSYLCNTGGRMHLVCPMSKSPYVDPHKSGHEIWEEFSMSFTPAVKEVVEFAKRIPGFRDLSQHDQVNLLKAGTFEVLMVRFASLFDAKERTVTFLSGKKYSVDDLHSMGAGDLLNSMFEFSEKLNALQLSDEEMSLFTAVVLVSADRSGIENVNSVEALQETLIRALRTLIMKNHPNEASIFTKLLLKLPDLRSLNNMHSEELLAFKVHP
[1]
  Luc. act., normalized to lacZ: 80.9
  Normalized Luc. act., normalized to control: 1.3
  luciferase activity normalized to lacZ activity and to a control, hMyoD: 1.28
[2]
  Luc. act., normalized to lacZ: 118.3
  Normalized Luc. act., normalized to control: 0.8
  luciferase activity normalized to lacZ activity and to a control, mPer1: 0.82
[3]
  Results of assays of transcription factor (+/- ligand) with mAgrp: 1.05
  Luc. act., normalized to lacZ: 41.7
  Normalized Luc. act., normalized to control: 1.1
[4]
  Luc. act., normalized to lacZ: 66.3
  Normalized Luc. act., normalized to control: 1.1
  mAdiponectin promoter reporter activity: 1.06
[5]
  Luc. act., normalized to lacZ: 8.8
  Normalized Luc. act., normalized to control: 2.0
  mDio1 promoter reporter activity: 1.97
[6]
  Luc. act., normalized to lacZ: 0.8
  Normalized Luc. act., normalized to control: 0.1
  regulation of the Bmal1 promoter: specific repression
  mBmal1 promoter reporter activity: 0.05

B4: RORg: RAR-related Orphan Receptor γ (NR1F3), cDNA driver (protein, UniProt P51449 1-518, looked up)
Nuclear receptor ROR-gamma: MDRAPQRQHRASRELLAAKKTHTSQIEVIPCKICGDKSSGIHYGVITCEGCKGFFRRSQRCNAAYSCTRQQNCPIDRTSRNRCQHCRLQKCLALGMSRDAVKFGRMSKKQRDSLHAEVQKQLQQRQQQQQEPVVKTPPAGAQGADTLTYTLGLPDGQLPLGSSPDLPEASACPPGLLKASGSGPSYSNNLAKAGLNGASCHLEYSPERGKAEGRESFYSTGSQLTPDRCGLRFEEHRHPGLGELGQGPDSYGSPSFRSTPEAPYASLTEIEHLVQSVCKSYRETCQLRLEDLLRQRSNIFSREEVTGYQRKSMWEMWERCAHHLTEAIQYVVEFAKRLSGFMELCQNDQIVLLKAGAMEVVLVRMCRAYNADNRTVFFEGKYGGMELFRALGCSELISSIFDFSHSLSALHFSEDEIALYTALVLINAHRPGLQEKRKVEQLQYNLELAFHHHLCKTHRQSILAKLPPKGKLRSLCSQHVERLQIFQHLHPIVVQAAFPPLYKELFSTETESPVGLSK
[1]
  Luc. act., normalized to lacZ: 86.5
  Normalized Luc. act., normalized to control: 1.4
  luciferase activity normalized to lacZ activity and to a control, hMyoD: 1.36
[2]
  Luc. act., normalized to lacZ: 176.3
  Normalized Luc. act., normalized to control: 1.2
  luciferase activity normalized to lacZ activity and to a control, mPer1: 1.22
[3]
  Results of assays of transcription factor (+/- ligand) with mAgrp: 2.51
  Luc. act., normalized to lacZ: 99.6
  Normalized Luc. act., normalized to control: 2.5
[4]
  Luc. act., normalized to lacZ: 133.3
  Normalized Luc. act., normalized to control: 2.1
  mAdiponectin promoter reporter activity: 2.12
[5]
  Luc. act., normalized to lacZ: 5.7
  Normalized Luc. act., normalized to control: 1.3
  mDio1 promoter reporter activity: 1.29
[6]
  Luc. act., normalized to lacZ: 58.9
  Normalized Luc. act., normalized to control: 3.8
  regulation of the Bmal1 promoter: specific activation
  mBmal1 promoter reporter activity: 3.77

— patent publication US20110263454A1, “Methods of Identifying Functional Characteristics of Promoters, Transcription Modifying Proteins and Transcription Modulating Agents” (Salk Institute for Biological Studies, priority 2008, published 2011)
